# Test results taken from the RNAGym collection of RNA variant scans (doi:10.7554/elife.80360).
# B1: Hammerhead Ribozyme (parent)
# chain: ACCGGAUGUGCUUUCCGGUCUGAUGAGUCCGUGAGGACGAAACAG
# Variants of: B1
# Test: self-cleavage, relative activity (ratio to wild type); higher = more cleavage; co-transcriptional
row,Variant,self-cleavage
1,ACCGGAUGUGCCUUCCGGUCUGAUGAGUCCGUGAGAACGAAACAG [U12C G36A],0.55
2,ACCGGAUGUGCUUUGCGGUCUGAUGAAUCCGUGAGGACGAAACAG [C15G G27A],0.464
3,ACCGGAUGCGCUUUCCGGUCUGACGAGUCCGUGAGGACGAAACAG [U9C U24C],0.94
4,UCCGGAUGUGCUUACCGGUCUGAUGAGUCCGUGAGGACGAAACAG [A1U U14A],0.353
5,ACCUGAUGUGCUUUCCGGUCUGAUGAGUCCGUGAGGACGAGACAG [G4U A41G],0.263
6,ACCCGAUGUGCUUUCCGGUCUGUUGAGUCCGUGAGGACGAAACAG [G4C A23U],0.314
7,AUCGGAUGUGCUUUCCGUUCUGAUGAGUCCGUGAGGACGAAACAG [C2U G18U],1.16
8,ACCGGAUGUGCUUUCCGGUCUGAUGAGUCCGUGACGACGUAACAG [G35C A40U],0.296
9,ACCGGAAGUGCUUUCCGGUCUGAUCAGUCCGUGAGGACGAAACAG [U7A G25C],0.279
10,ACCGGAUGUGCUUUCCGGUCUGAUGAGUCCGUGAGGAUGAAAGAG [C38U C43G],0.321
11,ACCGGAUGUGCUUUUCGGUCUGAUGAGUUCGUGAGGACGAAACAG [C15U C29U],0.808
12,ACCGGAUGUGCUUUCAGGUCUGAUGAGUGCGUGAGGACGAAACAG [C16A C29G],0.566
13,ACCGGAUGUGCUUUCCGGUCUGAUGAGUCCGUGAGGAAGAAACUG [C38A A44U],0.396
14,ACCGGAUGUGCUUUCCGGUCUGUUGAGUCCGUGAGGGCGAAACAG [A23U A37G],0.422
15,CCCGGAUGUGCUUUCCGGUCUGAUGAGUUCGUGAGGACGAAACAG [A1C C29U],0.402
16,ACCGGAUGUCCUUUCCGGUCUGAUGAGUCCGUGAGGACUAAACAG [G10C G39U],0.307
17,ACCGGAUGUGUUUUCAGGUCUGAUGAGUCCGUGAGGACGAAACAG [C11U C16A],0.886
18,ACCGGAUGUGCUUUCCGGUCUGAUGGGUCCGUGAGGACGAAGCAG [A26G A42G],0.225
19,ACCGGAUGUGCUUUACGGUCUGAUGAGACCGUGAGGACGAAACAG [C15A U28A],0.413

row,Variant,self-cleavage
1,ACCGGAUGUGCUUUCCGGUCUGAUGAGUCCGUGAGUACGAUACAG [G36U A41U],0.372
2,ACCGAAUGAGCUUUCCGGUCUGAUGAGUCCGUGAGGACGAAACAG [G5A U9A],1.27
3,ACCGGAUGUGAUUUCCGGUCUGAUGAGUCCGUGAGGGCGAAACAG [C11A A37G],1.28
4,ACCGGAUGUGCUUUCCGGUCUGGUGAGUCCGUGAGAACGAAACAG [A23G G36A],0.34
5,ACCGGAUGUGCUUUCCGGUCUGAUGAGUCCGUUAAGACGAAACAG [G33U G35A],0.774
6,ACCGGAUGUUCUUCCCGGUCUGAUGAGUCCGUGAGGACGAAACAG [G10U U14C],0.952
7,ACCGGAUGUGCUUUCCGGUCUGAUGAGUCAGUGAGGACGGAACAG [C30A A40G],0.414
8,AGGGGAUGUGCUUUCCGGUCUGAUGAGUCCGUGAGGACGAAACAG [C2G C3G],0.353
9,ACCGGAUGUGCUUUCCGGUCUGAUGAGUCCGUAACGACGAAACAG [G33A G35C],0.787
10,CCCGGAUGUGCUUUCCGGUCUGAUGAGUCCGUGAGGACGAAUCAG [A1C A42U],0.322
11,ACCGGAUGUGCUUACCGGUCUCAUGAGUCCGUGAGGACGAAACAG [U14A G22C],0.327
12,ACCGGAUGUGCUUUCCGGUCUGCUGGGUCCGUGAGGACGAAACAG [A23C A26G],0.212
13,ACCUGAUGUGCUUUCCGGUCUGAUGAGUCCGUGAGGACGAAAUAG [G4U C43U],0.261
14,ACCGAAUGUGCUUUCCGGUCUGAUGAGUCCGUGAGGACGAAACGG [G5A A44G],1.29
15,ACCGGAUGUGCUUUCCGGUCUGAUGAGUCGCUGAGGACGAAACAG [C30G G31C],0.926
16,ACGGGAUGUGCUUUCCGGUCUGAUGAGACCGUGAGGACGAAACAG [C3G U28A],0.376
17,ACCGGAUGUGCUUUCCGGUCUGAUGAGUCCGUAAGGACGAACCAG [G33A A42C],0.394
18,AACGGAUGUCCUUUCCGGUCUGAUGAGUCCGUGAGGACGAAACAG [C2A G10C],0.662
19,ACCGGAUGUGCUUUCCGGUCUGAUAAGUCCGUGAGGACGUAACAG [G25A A40U],0.356

row,Variant,self-cleavage
1,ACCGGAUGUGCUUUCCGGUCUGAUGAGUCCGUGAGGACCAGACAG [G39C A41G],0.328
2,ACCGGAUGUGCCUUCCGGUCUGAUGAGUCCGUGAAGACGAAACAG [U12C G35A],0.737
3,ACCGGAUGUGCUUUCCGGUCUGAUCAGUCCGUCAGGACGAAACAG [G25C G33C],0.272
4,ACCGGCUGUGCUUUCCGGUCUGAUGAGUCCGUGACGACGAAACAG [A6C G35C],0.391
5,ACCGGAUGUGCUUUCCGGACUGAUGAGUCGGUGAGGACGAAACAG [U19A C30G],0.28
6,ACCGGAUGUGCUUUCUGGUCUGAUGAGUCCGUGAGGACGAAAAAG [C16U C43A],0.352
7,ACCGGAUGUGCUUUCCGGUCUGAUGGGUCCGUGAGGACGUAACAG [A26G A40U],0.412
8,ACCGGAUGUGAUUUCUGGUCUGAUGAGUCCGUGAGGACGAAACAG [C11A C16U],0.985
9,ACCGGAUGUGCUUUCCGGACUGAUGAGUCCGUGUGGACGAAACAG [U19A A34U],0.388
10,ACGGGAUGUGCUUUCCGGCCUGAUGAGUCCGUGAGGACGAAACAG [C3G U19C],0.31
11,ACCGGAUGUGGUUUGCGGUCUGAUGAGUCCGUGAGGACGAAACAG [C11G C15G],0.88
12,ACCGGAUGUGCUUUCCGGUCUGAUGAGUACGUGAGGACGAAAAAG [C29A C43A],0.345
13,ACCGGAUCUGCUUUCCGGUCUGUUGAGUCCGUGAGGACGAAACAG [G8C A23U],0.328
14,ACCGGAUGUGACUUCCGGUCUGAUGAGUCCGUGAGGACGAAACAG [C11A U12C],1.08
15,ACCGGAUGUGCUUUCCAGUCUGAUGAGUCCGUGAGGACGGAACAG [G17A A40G],0.361
16,ACCGGAUGUGCUUUCCGGUCUGAUGAGUCCGUGAUGACUAAACAG [G35U G39U],0.42
17,ACCGGAUGUGCUUUCCGGUGUGAUGAGUCCGUGAGGACGAAACGG [C20G A44G],0.629
18,ACCGGAUGUGUUUUCCGGUCUGAUGAGUCCGUUAGGACGAAACAG [C11U G33U],1.04
19,ACCGGAUGUGCCUUCCGGUCCGAUGAGUCCGUGAGGACGAAACAG [U12C U21C],0.792
